From paper PMC3144404 come the findings set out here.

For this experiment, the target named is actin, endogenous (human (endogenous in myoblasts and myotubes from human muscle biopsies)) (UniProt P60709). Description: co-IP.

“STIM1L (long splice variant of stromal interaction molecule 1), endogenous (from UniProt Q13586-2 23-540) (natural protein)” came in with a percent of input immunoprecipitated of 87%.
